Measured values reported in patent US20250121082A1 (SHANDONG BOAN BIOTECHNOLOGY, published 2025).

T1: Human CD228 protein (human, UniProt P08582 20-708, limits assumed)
T1 construct: Recombinant protein made in CHO cells, purified over a Ni column; The printed entry begins with the leader (MRGPSG...) and ends with ten His; also called hCD228; CD228-His protein
T1 sequence: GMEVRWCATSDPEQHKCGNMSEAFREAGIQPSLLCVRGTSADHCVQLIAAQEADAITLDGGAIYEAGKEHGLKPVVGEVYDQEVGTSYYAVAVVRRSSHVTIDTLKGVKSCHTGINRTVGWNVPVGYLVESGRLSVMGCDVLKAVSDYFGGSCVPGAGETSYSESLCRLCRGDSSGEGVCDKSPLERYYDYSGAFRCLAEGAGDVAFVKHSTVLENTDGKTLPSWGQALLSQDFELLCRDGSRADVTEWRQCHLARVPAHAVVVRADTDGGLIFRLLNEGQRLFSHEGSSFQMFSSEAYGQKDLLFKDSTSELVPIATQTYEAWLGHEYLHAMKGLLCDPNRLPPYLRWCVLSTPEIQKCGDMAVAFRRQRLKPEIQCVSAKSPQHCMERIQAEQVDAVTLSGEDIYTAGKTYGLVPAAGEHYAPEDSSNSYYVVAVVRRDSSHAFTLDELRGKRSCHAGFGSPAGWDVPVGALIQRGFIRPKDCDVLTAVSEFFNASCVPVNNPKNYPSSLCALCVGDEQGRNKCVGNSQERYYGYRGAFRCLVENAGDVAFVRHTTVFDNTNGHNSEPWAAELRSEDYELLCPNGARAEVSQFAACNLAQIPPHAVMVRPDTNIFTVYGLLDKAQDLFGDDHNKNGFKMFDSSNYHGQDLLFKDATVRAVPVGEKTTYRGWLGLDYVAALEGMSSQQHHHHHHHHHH

T2: Mouse CD228 protein (mouse, UniProt Q9R0R1 20-708, limits assumed)
T2 construct: Recombinant His-tagged protein from CHO cells
T2 chain: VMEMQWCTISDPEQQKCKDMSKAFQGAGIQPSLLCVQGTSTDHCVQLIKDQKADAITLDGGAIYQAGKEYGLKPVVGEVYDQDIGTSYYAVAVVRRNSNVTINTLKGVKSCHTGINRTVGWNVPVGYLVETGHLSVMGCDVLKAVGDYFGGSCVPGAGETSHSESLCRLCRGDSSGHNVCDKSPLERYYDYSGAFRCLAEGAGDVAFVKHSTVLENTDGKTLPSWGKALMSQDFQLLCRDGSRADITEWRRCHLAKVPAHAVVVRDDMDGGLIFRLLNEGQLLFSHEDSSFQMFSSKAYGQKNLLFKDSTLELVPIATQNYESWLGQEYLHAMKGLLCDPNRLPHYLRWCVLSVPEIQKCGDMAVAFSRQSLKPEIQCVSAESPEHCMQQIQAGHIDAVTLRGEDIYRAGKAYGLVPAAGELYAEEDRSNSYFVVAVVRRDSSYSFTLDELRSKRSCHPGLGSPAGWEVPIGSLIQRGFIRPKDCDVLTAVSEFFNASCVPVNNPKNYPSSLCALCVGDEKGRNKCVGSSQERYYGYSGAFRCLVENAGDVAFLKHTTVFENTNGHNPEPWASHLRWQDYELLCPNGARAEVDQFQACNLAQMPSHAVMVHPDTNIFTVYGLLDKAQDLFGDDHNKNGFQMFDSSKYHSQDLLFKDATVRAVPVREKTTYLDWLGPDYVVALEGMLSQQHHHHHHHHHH

B1: CA149 (antibody, human IgG1, kappa, V domains shown)
VH: EVQLVESGGGVVQPGRSLRLSCAASGFTFSSYAMHWVRQAPGKGLEWVAVISFDGSNKYYTDSVKGRFTISRDNSKNTLYLQMNSLRAEDTAVYYCAREVPYYYGSGPFDYWGQGTLVTVSS
VL: EIVLTQSPATLSVSPGERATLSCRASQSVSSNLAWYQQKPGQAPRHLIDGASSRASGIPDRFSGSGSGTDFTLTISRLEPEDFAVYYCQQYGSSPPFTFGPGTKVDIKR
notes: Intact IgG1; also called CA149 antibody
B2: CA185 (antibody, human IgG1, kappa, V domains shown)
VH: EVQLVESGGGVVQPGRSLRLSCAASGFTFSSYAMHWVRQAPGKGLEWVAVISYDGSNKYYADSVKGRFTISRDNSKNTLYLQMNSLRAEDTAVYYCAREVPYYYGSGPFDYWGQGTLVTVSS
VL: EIVLTQSPGTLSLSPGERATLSCRASQSVSSSSLAWYQQKPGQAPRHLIDGASSRASGIPDRFSGSGSGTDFTLTISRLEPEDFAVYYCQQYGSSYTFGQGTKVDIKR
notes: Intact IgG1
B3: BA352 (antibody, human IgG1, kappa, V domains shown)
VH: EVQLVESGGGVVQPGRSLRLSCAASGFTFSSYAMHWVRQAPGKGLEWVAVISYDGSNKYYADSVKGRFTISRDNSKNTLYLQMNSLRAEDTAVYYCARGPYLAAAGTALTFDIWGQGTMVTVSS
VL: DIQMTQSPSAMSASVGDRVTITCRASQGINNYLAWFQQKPGKVPKRLIYAASSLQSGVPSRFSGSGSGTEFTLTISSLQPEDFATYYCLQHNSYPFTFGPGTKVDIKR
notes: Intact IgG1

Key:
[1] = target: T1, Human CD228 protein; assay: Octet competition on His-chip CD228; competitor: CA67
Method: (§1) CD228 proteins were immobilized on His chips at 10 μg/mL with a threshold of 0.5 nm. The first CD228 antibody (30 μg/mL) was immobilized, and the competitive binding of the second CD228 antibody (30 μg/mL) was analyzed. The Octet 8K system was used to analyze the response of antibody 2 and to determine whether antibody 1 and antibody 2 were in competition.

[2] = target: T1, Human CD228 protein; assay: Octet competition on His-chip CD228; competitor: CA13
Method: as §1
(§2) The final competition analysis was conducted using the following calculation method: 1—response value/blank value.

[3] = target: T1, Human CD228 protein; assay: Octet competition on His-chip CD228; competitor: BA352
Method: as §1, §2

[4] = target: T1, Human CD228 protein; assay: Octet competition on His-chip CD228; competitor: CA518
Method: as §1

[5] = target: T1, Human CD228 protein; assay: Octet competition on His-chip CD228; competitor: hl49
Method: as §1

[6] = target: T1, Human CD228 protein; assay: Octet competition on His-chip CD228; competitor: CA518; remark: listed apart in the source
Method: as §1, §2

[7] = target: T1, Human CD228 protein; assay: Octet competition on His-chip CD228; competitor: BA352; remark: listed apart in the source
Method: as §1

[8] = target: T2, Mouse CD228 protein; assay: SPR, BIAcore 8K; antibody on ProA chip, CD228 protein as analyte
Method: The binding kinetics of the antibodies to the CD228 proteins was measured using the BIAcore 8K system based on surface plasmon resonance (SRP). CD228 antibodies were immobilized on ProA chips at a concentration of 2 μg/mL, and the binding activity of the CD228 antibodies to human, monkey, and mouse CD228 proteins was analyzed. Human, monkey and mouse CD228 proteins were serially 2-fold diluted from 50 nM to 5 concentrations with an HBS-EP+ buffer. The binding kinetics of the CD228 proteins were analyzed by Biacore, and the affinity activity KD values were calculated by fitting.

[9] = target: T1, Human CD228 protein; assay: Octet competition on His-chip CD228; competitor: CA13; remark: listed apart in the source
Method: as §1

[10] = target: T1, Human CD228 protein; assay: Octet, CD228 on His chip; PBST buffer in place of the first antibody
Method: as §1

[11] = target: T1, Human CD228 protein; assay: Octet competition on His-chip CD228; competitor: CA149
Method: as §1, §2

[12] = target: T1, Human CD228 protein; assay: Octet competition on His-chip CD228; competitor: CA67; remark: listed apart in the source
Method: as §1, §2

Binder	Octet response value [1]	competition (1-response value/blank value) [2]	competition (1-response value/blank value) [3]	Octet response value [4]	Octet response value [5]	competition (1-response value/blank value) [6]	Octet response value [7]	binding result [8]	Octet response value [9]	Octet response value (blank value, PBST buffer) [10]	competition (1-response value/blank value) [11]	competition (1-response value/blank value) [12]
B1	0.0087	97%	-12%	0.0079	0.348	98%	0.442	no binding	0.0117	0.409	99%	98%
B2	0.0028	99%	-17%	0.0029	0.356	99%	0.459	no binding	0.0046	0.411	98%	99%
B3	0.443	-8%	94%	0.458	0.0006	-4%	0.0217	no binding	0.424	0.393	-2%	-4%
